In one series the test system is DEBS or DEBS1+TE. The following applies: cited from earlier work.
A short description of series [1]: Stability of acyl-CoAs in TCA and mutase assay buffer (HPLC). The series is classed as physicochemical. The settings on record: five minutes under the mutase assay conditions, 30° C. On the procedure: To test whether acyl-CoAs degrade in TCA, the following tests were conducted. The CoA mix consisted of 1.6 mM each of malonyl-, methylmalonyl-, succinyl-, acetyl-, and propionyl-CoA, plus 0.5 mM CoA. An aliquot (10 μL) of this mix was added to 100 μL 10% TCA, 50 μL were immediately injected to the HPLC for CoA analysis, and the remainder was promptly frozen on dry ice. The frozen portion was then thawed and loaded immediately to the HPLC. Again, 10 μL of the CoA mix were added to 100 μL 10% TCA, 50 μL were left on ice for 15 minutes and then injected to the HPLC, the remainder was left at 4° C. overnight and injected to the HPLC the next morning. The area under each CoA peak was noted. This same procedure was followed but using a mixture of TCA and buffer A from the mutase assay.
The CoA analysis described here is carried out on cells which are lysed in 10% TCA. […] Thus, the CoAs are stable in TCA and in the mutase assay buffer after the cells are lysed or after the assays are completed, and prior to HPLC analysis.
Although the CoAs are stable in TCA and buffer at 4° C., they degraded at 30° C., the temperature at which the mutase assay was performed. In five minutes under the assay conditions, about 4% of the methylmalonyl-CoA hydrolyzed to CoA. […] Thus, the mutase assay is suboptimal for extremely quantitative results.

The nature of series [2]: Spontaneous chemical epimerization between (R)- and (S)-mm-CoA. In kind it is physicochemical. The settings on record: in 15 minutes.
Substrate in series [3]: C[C@H](C(=O)O)C(=O)SCCNC(=O)CCNC(=O)[C@H](O)C(C)(C)COP(=O)(O)OP(=O)(O)OC[C@H]1O[C@@H](n2cnc3c(N)ncnc32)[C@H](O)[C@@H]1OP(=O)(O)O
The series can be described thus: Methylmalonyl-CoA epimerase steady state kinetics (transcarboxylase/malate dehydrogenase coupled assay, A340). In kind it is biochemical, Streptomyces coelicolor. The following applies: other: 30° C, pH 6.9, (2RS)-methylmalonyl-CoA 27 μM to 160 μM, (2R) concentration assumed one-half of (2RS), epimerase activated with CoCl2. The procedure: (§1) Methylmalonyl-CoA epimerase assay. Enzyme activity was assayed at 30° C. using a modification of a reported method (27). The epimerase (0.54 mg/ml) was first activated with 100 μM CoCl2 at 4° C. for 1 h. Reaction mixtures (1.5 mL) contained 0.2 M potassium phosphate buffer pH 6.9, 0.1 M NH4SO4, 5 mM Na pyruvate, 0.08 mM (2RS)-methylmalonyl-CoA, 0.05 units transcarboxylase, 0.16 mM NADH, and 2.5 units of malate dehydrogenase. The reaction was initiated with (2RS)-methylmalonyl-CoA, and the decrease in A340 concomitant with consumption of the S-isomer was allowed to stabilize. Limiting epimerase was added to catalyze conversion of the remaining R- to S-isomer, and the initial rate and total decrease in A340 were monitored. For kinetic studies, -1.2 nM epimerase was incubated with varying amounts of (2RS)-methylmalonyl-CoA (27 μM to 160 μM). The (2R)-methylmalonyl-CoA concentrations were assumed to be one-half of the concentration of (2RS)-methylmalonyl-CoA.
S. coelicolor methylmalonyl-CoA epimerase gene. The P. shermanii methylmalonyl-CoA epimerase DNA sequence was used to search the S. coelicolor genomic database (www.sanger.ac.uk/Projects/S coelicolor) using the BLAST programs at the National Center for Biotechnology Information, NIH website (37), and S. coelicolor gene 8F4.02c was identified as a putative methylmalonyl-CoA epimerase. […]

A short description of series [4]: Methylmalonyl-CoA mutase assay in crude cell extracts (HPLC, conversion of methylmalonyl-CoA to succinyl-CoA). The settings on record: cells grown without hydroxocobalamin; extracts not supplemented with B12. The series is classed as biochemical. On the procedure:
The mutase assay was performed as follows. All operations were performed in the dark or under a red safelight. The pellet from 25 mL of culture was thawed, washed in buffer C (50 mM potassium phosphate pH 7.4, 5 mM EDTA, 10% glycerol), and resuspended in 0.5 mL of buffer C containing protease inhibitors (1 tablet per 10 mL of buffer). Following sonication on ice, the extract was clarified by centrifugation at 4° C. for 10 minutes at maximum speed in an Eppendorf microfuge; the supernatent was assayed. Enzyme assays contained, in a final volume of 100 μL, 0.2 mM (2R,2S)-methylmalonyl-CoA, mutase extract, and buffer C containing protease inhibitors. Reactions for assays with vitamin B12 were as above but contained 0.01 mM vitamin B12, in which case the mutase extract was incubated with the vitamin B12 in a total volume of 75 μL for 5 minutes at 30° C. prior to initiation of reaction with methylmalonyl-CoA. After the desired length of incubation at 30° C., the reaction was stopped by the addition of 50 μL of 10% trichloroacetic acid (TCA) and placed on ice for approximately 10 minutes. […] An aliquot (100 μL) of the supernatant was injected onto the HPLC to quantify conversion of methylmalonyl-CoA to succinyl-CoA. […]
Methylmalonyl-CoA mutase assay. […] After centrifugation, 100 μl of the supernatant was analyzed by HPLC to quantify conversion of methylmalonyl-CoA to succinyl-CoA.

Substrate in series [5]: C[C@H](C(=O)O)C(=O)SCCNC(=O)CCNC(=O)[C@H](O)C(C)(C)COP(=O)(O)OP(=O)(O)OC[C@H]1O[C@@H](n2cnc3c(N)ncnc32)[C@H](O)[C@@H]1OP(=O)(O)O
The series can be described thus: Methylmalonyl-CoA epimerase steady state kinetics (transcarboxylase/malate dehydrogenase coupled assay, A340). In kind it is biochemical, Propionibacterium freudenreichii subsp. shermanii. The settings on record: other: 30° C, pH 6.9, (2RS)-methylmalonyl-CoA 27 μM to 160 μM, (2R) concentration assumed one-half of (2RS), epimerase activated with CoCl2. The procedure: as §1
Heterologous expression and purification of the epimerases. E. coli BL21(DE3) harboring either pKOS143-28-8 (P. shermanii epimerase) or pKOS117-174-A37 (S. coelicolor epimerase) was grown in 750 ml LB (100 μg/ml carbenicillin) at 37° C. until late log phase, then induced with IPTG to 1 mM final concentration and grown for an additional 3 h at 30° C. The cells were collected by centrifugation, and the pellets were stored at −80° C. […]

“Also recorded” adds a separate entry of the source.

Regarding `C[C@@H](C(=O)O)C(=O)SCCNC(=O)CCNC(=O)[C@H](O)C(C)(C)COP(=O)(O)OP(=O)(O)OC[C@H]1O[C@@H](n2cnc3c(N)ncnc32)[C@H](O)[C@@H]1OP(=O)(O)O` [(2S)-methylmalonyl-CoA], in the series on DEBS or DEBS1+TE, the Michaelis constant (Km) – broadly, the substrate concentration at which the rate is half of its maximum – was around 25 µM.

As for `CC(C(=O)O)C(=O)SCCNC(=O)CCNC(=O)[C@H](O)C(C)(C)COP(=O)(O)OP(=O)(O)OC[C@H]1O[C@@H](n2cnc3c(N)ncnc32)[C@H](O)[C@@H]1OP(=O)(O)O` (stereo partly drawn) [methylmalonyl-CoA], the “hydrolyzed to CoA” value in series [1] is “about 4%”. Also, the spontaneous chemical epimerization result in series [2] was “approximately 3%”.

Turning to `CC(C)(COP(=O)(O)OP(=O)(O)OC[C@H]1O[C@@H](n2cnc3c(N)ncnc32)[C@H](O)[C@@H]1OP(=O)(O)O)[C@@H](O)C(=O)NCCC(=O)NCCSC(=O)CCC(=O)O` [succinyl-CoA], in series [1], the “hydrolyzed to CoA” value is recorded as “comparable rate”.

B1: Streptomyces coelicolor methylmalonyl-CoA epimerase, wild type, recombinant (gene 8F4.02c) (Streptomyces coelicolor A3(2)) (protein)
chain: MLTRIDHIGIACHDLDATVEFYRATYGFEVFHTEVNEEQGVREAMLKINDTSDGGASYLQLLEPTREDSAVGKWLAKNGEGVHHIAFGTADVDADAADIRDKGVRVLYDEPRRGSMGSRITFLHPKDCHGVLTELVTSAAVESPEH
notes: (2RS)-methylmalonyl-CoA substrate
As to B1, in series [3], the Km stood at 57 µM and the catalytic constant (kcat) – broadly, the maximal rate divided by the concentration of active sites – came to 75 s⁻¹.

B2: mutase: methylmalonyl-CoA mutase (EC 5.4.99.2) from P. shermanii, expressed in E. coli (protein, UniProt P11652 2-638; P11653 2-728, looked up)
Methylmalonyl-CoA mutase … 1: SSTDQGTNPADTDDLTPTTLSLAGDFPKATEEQWEREVEKVLNRGRPPEKQLTFAECLKRLTVHTVDGIDIVPMYRPKDAPKKLGYPGVAPFTRGTTVRNGDMDAWDVRALHEDPDEKFTRKAILEGLERGVTSLLLRVDPDAIAPEHLDEVLSDVLLEMTKVEVFSRYDQGAAAEALVSVYERSDKPAKDLALNLGLDPIAFAALQGTEPDLTVLGDWVRRLAKFSPDSRAVTIDANIYHNAGAGDVAELAWALATGAEYVRALVEQGFTATEAFDTINFRVTATHDQFLTIARLRALREAWARIGEVFGVDEDKRGARQNAITSWRDVTREDPYVNILRGSIATFSASVGGAESITTLPFTQALGLPEDDFPLRIARNTGIVLAEEVNIGRVNDPAGGSYYVESLTRSLADAAWKEFQEVEKLGGMSKAVMTEHVTKVLDACNAERAKRLANRKQPITAVSEFPMIGARSIETKPFPAAPARKGLAWHRDSEVFEQLMDRSTSVSERPKVFLACLGTRRDFGGREGFSSPVWHIAGIDTPQVEGGTTAEIVEAFKKSGAQVADLCSSAKVYAQQGLEVAKALKAAGAKALYLSGAFKEFGDDAAEAEKLIDGRLFMGMDVVDTLSSTLDILGVAK
Methylmalonyl-CoA mutase … 2: STLPRFDSVDLGNAPVPADAARRFEELAAKAGTGEAWETAEQIPVGTLFNEDVYKDMDWLDTYAGIPPFVHGPYATMYAFRPWTIRQYAGFSTAKESNAFYRRNLAAGQKGLSVAFDLPTHRGYDSDNPRVAGDVGMAGVAIDSIYDMRELFAGIPLDQMSVSMTMNGAVLPILALYVVTAEEQGVKPEQLAGTIQNDILKEFMVRNTYIYPPQPSMRIISEIFAYTSANMPKWNSISISGYHMQEAGATADIEMAYTLADGVDYIRAGESVGLNVDQFAPRLSFFWGIGMNFFMEVAKLRAARMLWAKLVHQFGPKNPKSMSLRTHSQTSGWSLTAQDVYNNVVRTCIEAMAATQGHTQSLHTNSLDEAIALPTDFSARIARNTQLFLQQESGTTRVIDPWSGSAYVEELTWDLARKAWGHIQEVEKVGGMAKAIEKGIPKMRIEEAAARTQARIDSGRQPLIGVNKYRLEHEPPLDVLKVDNSTVLAEQKAKLVKLRAERDPEKVKAALDKITWAAGNPDDKDPDRNLLKLCIDAGRAMATVGEMSDALEKVFGRYTAQIRTISGVYSKEVKNTPEVEEARELVEEFEQAEGRRPRILLAKMGQDGHDRGQKVIATAYADLGFDVDVGPLFQTPEETARQAVEADVHVVGVSSLAGGHLTLVPALRKELDKLGRPDILITVGGVIPEQDFDELRKDGAVEIYTPGTVIPESAISLVKKLRASLDA
As for B2, in series [4], the mutase activity entry is “no mutase activity was observed; also recorded: undetectable”.

B3: Propionibacterium shermanii methylmalonyl-CoA epimerase (EC 5.1.99.1), wild type, recombinant, GenBank AY046899 (Propionibacterium freudenreichii subsp. … (protein)
chain: MSNEDLFICIDHVAYACPDADEASKYYQETFGWHELHREENPEQGVVEIMMAPAAKLTEHMTQVQVMAPLNDESTVAKWLAKHNGRAGLHHMAWRVDDIDAVSATLRERGVQLLYDEPKLGTGGNRINFMHPKSGKGVLIELTQYPKN
Consider B3, for which, in series [5], the Michaelis-Menten constant (Km) came to 38 µM and the turnover number (kcat) is 150 s⁻¹.

These data come from patent US20040005672A1, “Heterologous production of polyketides” (priority 2002, published 2004).
